Experiments:
Tat (wild-type) (HIV-1) = Tat (wild-type) (HIV-1) (UniProt P04608); test: EMSA; conditions: printed as Ka of 6.4x10^-10 M; Scatchard, one tat per TAR RNA
[1] = molecular target: TRP-185 (cellular TAR RNA binding protein, about 185 kD) (Homo sapiens) (UniProt Q13395); test: EMSA
Chain of TRP-185 (cellular TAR RNA binding protein, about 185 kD) (Homo sapiens) (Q13395 whole entry): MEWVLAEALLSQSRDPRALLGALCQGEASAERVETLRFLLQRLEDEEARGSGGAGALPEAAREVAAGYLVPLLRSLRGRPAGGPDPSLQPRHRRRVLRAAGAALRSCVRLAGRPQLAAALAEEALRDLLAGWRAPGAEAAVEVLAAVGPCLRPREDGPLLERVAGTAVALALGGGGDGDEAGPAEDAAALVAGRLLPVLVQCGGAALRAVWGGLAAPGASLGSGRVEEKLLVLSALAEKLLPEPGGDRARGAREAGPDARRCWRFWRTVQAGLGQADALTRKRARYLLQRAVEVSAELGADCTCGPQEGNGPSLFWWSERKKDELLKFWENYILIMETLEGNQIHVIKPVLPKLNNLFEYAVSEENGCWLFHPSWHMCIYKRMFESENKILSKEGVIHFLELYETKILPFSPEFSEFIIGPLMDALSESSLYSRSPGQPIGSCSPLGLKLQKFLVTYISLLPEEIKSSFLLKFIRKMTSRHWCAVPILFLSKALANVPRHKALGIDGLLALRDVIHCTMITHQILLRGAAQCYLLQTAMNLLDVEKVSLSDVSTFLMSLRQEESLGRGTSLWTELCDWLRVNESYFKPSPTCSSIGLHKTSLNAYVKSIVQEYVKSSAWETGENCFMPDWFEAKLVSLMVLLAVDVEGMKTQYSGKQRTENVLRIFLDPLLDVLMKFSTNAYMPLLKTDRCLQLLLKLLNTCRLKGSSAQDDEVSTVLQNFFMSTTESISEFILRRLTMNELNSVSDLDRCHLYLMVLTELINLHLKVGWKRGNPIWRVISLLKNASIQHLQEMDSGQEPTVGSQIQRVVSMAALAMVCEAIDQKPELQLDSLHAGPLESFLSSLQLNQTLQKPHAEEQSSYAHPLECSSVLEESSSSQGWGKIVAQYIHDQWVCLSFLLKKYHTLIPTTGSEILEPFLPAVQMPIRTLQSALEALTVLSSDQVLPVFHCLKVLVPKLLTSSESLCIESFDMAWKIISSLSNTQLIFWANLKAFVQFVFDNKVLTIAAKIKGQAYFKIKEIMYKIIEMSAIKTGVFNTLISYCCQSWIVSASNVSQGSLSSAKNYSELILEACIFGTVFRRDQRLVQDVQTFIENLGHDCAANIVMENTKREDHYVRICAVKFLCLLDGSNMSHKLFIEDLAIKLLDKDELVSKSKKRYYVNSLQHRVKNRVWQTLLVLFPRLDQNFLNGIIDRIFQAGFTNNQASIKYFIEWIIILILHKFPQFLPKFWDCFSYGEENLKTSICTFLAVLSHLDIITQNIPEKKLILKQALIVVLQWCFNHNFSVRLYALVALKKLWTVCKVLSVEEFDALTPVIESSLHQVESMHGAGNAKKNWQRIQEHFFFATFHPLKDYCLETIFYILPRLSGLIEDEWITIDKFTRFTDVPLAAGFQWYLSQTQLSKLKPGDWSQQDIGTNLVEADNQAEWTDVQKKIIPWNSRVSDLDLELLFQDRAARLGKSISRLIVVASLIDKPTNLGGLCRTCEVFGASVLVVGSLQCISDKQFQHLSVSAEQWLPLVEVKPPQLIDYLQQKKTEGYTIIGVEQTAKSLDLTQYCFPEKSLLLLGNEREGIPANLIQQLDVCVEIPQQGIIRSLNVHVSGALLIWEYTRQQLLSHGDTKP

Substance | Kd (Tat (wild-type) (HIV-1)) [nM] | Kd ([1]; Scatchard, cofactor fraction required with sucrose gradient TRP-185, room temperature, 50 mM KCl) [µM] | Kd ([1]; data not shown) [µM]
HIV TAR RNA wild-type (+1/+80) | 0.64 | 0.000315 | 
nonspecific RNA |  |  | 21.1
